The nature of the series: Thermal stability by differential scanning calorimetry (DSC). As to conditions: 0.4 mg/mL in PBS. The format is physicochemical. As for the experimental part: The thermal stability of the humanized antibody variants was assessed by differential scanning calorimetry (DSC) as described below.
400 μL of purified samples primarily at concentrations of 0.4 mg/mL in PBS were used for DSC analysis with a VP-Capillary DSC (Malvern Panalytical Inc., Westborough, MA). At the start of each DSC run, 5 buffer blank injections were performed to stabilize the baseline, and a buffer injection was placed before each sample injection for referencing. Each sample was scanned from 20° C. to 100° C. at a 60° C./hr rate, with low feedback, 8 sec filter, 3 min pre-scan thermostat, and 70 psi nitrogen pressure. The resulting thermograms were referenced and analyzed using Origin 7 software (OriginLab Corporation, Northampton, MA) to determine melting temperature (Tm) as an indicator of thermal stability.
In general terms: Differential scanning calorimetry records heat flow against a reference as temperature is scanned.

B1: v29453: "Representative humanized antibody variants ... of the mouse antibody" that specifically binds hNaPi2b (antibody, V domains shown)
VH: QVQLVQSGAEVKKPGASVKMSCKASGFTFTSYNVHWVRQAPGQGLEWIAAISPGNGDLSYAQKFQGRATLTVDRSTSTAYMELSSLRSEDTAVYYCARGRTGMGAVDYWGQGTLVTVSS
VL: DVQMTQSPSSLSASVGDRVTITCRASQDVYSYLNWYQQKPGKAVKLLIYYTSRLQSGVPSRFSGSGSGTDYTLTISSLQPEDFATYYCQQYNIFPWTFGQGTKLEIK
modifications: v29449, v29453, v29457 H4; v29453, v29454, v29455, v29456 L2
For the molecule B1, the “Fab Tm” value came to 78.9 °C.

B2: v29459: "Representative humanized antibody variants ... of the mouse antibody" that specifically binds hNaPi2b (antibody, V domains shown)
VH: QVQLVQSGAEVKKPGASVKVSCKASGFTFTSYNVHWVRQAPGQGLEWIAAISPGNGDLSYAQKFQGRVTMTVDTSTSTVYMELSSLRSEDTAVYYCARGRTGMGAVDYWGQGTLVTVSS
VL: DIQMTQSPSSLSASVGDRVTITCRASQDVYSYLNWYQQKPGKAPKLLIYYTSRLQSGVPSRFSGSGSGTDFTLTISSLQPEDFATYYCQQYNIFPWTFGQGTKLEIK
modifications: v29451, v29455, v29459 H2; v29457, v29458, v29459, v29460 L1
On to B2, for which the “Fab Tm” value was 83.1 °C.

B3: v29457: "Representative humanized antibody variants ... of the mouse antibody" that specifically binds hNaPi2b (antibody, V domains shown)
VH: QVQLVQSGAEVKKPGASVKMSCKASGFTFTSYNVHWVRQAPGQGLEWIAAISPGNGDLSYAQKFQGRATLTVDRSTSTAYMELSSLRSEDTAVYYCARGRTGMGAVDYWGQGTLVTVSS
VL: DIQMTQSPSSLSASVGDRVTITCRASQDVYSYLNWYQQKPGKAPKLLIYYTSRLQSGVPSRFSGSGSGTDFTLTISSLQPEDFATYYCQQYNIFPWTFGQGTKLEIK
modifications: v29449, v29453, v29457 H4; v29457, v29458, v29459, v29460 L1
On to B3, for which the “Fab Tm” value stood at 80.5 °C.

B4: v29455: "Representative humanized antibody variants ... of the mouse antibody" that specifically binds hNaPi2b (antibody, V domains shown)
VH: QVQLVQSGAEVKKPGASVKVSCKASGFTFTSYNVHWVRQAPGQGLEWIAAISPGNGDLSYAQKFQGRVTMTVDTSTSTVYMELSSLRSEDTAVYYCARGRTGMGAVDYWGQGTLVTVSS
VL: DVQMTQSPSSLSASVGDRVTITCRASQDVYSYLNWYQQKPGKAVKLLIYYTSRLQSGVPSRFSGSGSGTDYTLTISSLQPEDFATYYCQQYNIFPWTFGQGTKLEIK
modifications: v29451, v29455, v29459 H2; v29453, v29454, v29455, v29456 L2
As for B4, the “Fab Tm” value turned out to be 81.5 °C.

B5: v29460: "Representative humanized antibody variants ... of the mouse antibody" that specifically binds hNaPi2b (antibody, V domains shown)
VH: QVQLVQSGAEVKKPGASVKVSCKASGFTFTSYNVHWVRQAPGQGLEWMGAISPGNGDLSYAQKFQGRVTMTRDTSTSTVYMELSSLRSEDTAVYYCARGRTGMGAVDYWGQGTLVTVSS
VL: DIQMTQSPSSLSASVGDRVTITCRASQDVYSYLNWYQQKPGKAPKLLIYYTSRLQSGVPSRFSGSGSGTDFTLTISSLQPEDFATYYCQQYNIFPWTFGQGTKLEIK
modifications: v29452, v29460 H1; v29457, v29458, v29459, v29460 L1
For the molecule B5, the “Fab Tm” value was found to be 80.3 °C.

B6: v29454: "Representative humanized antibody variants ... of the mouse antibody" that specifically binds hNaPi2b (antibody, V domains shown)
VH: QVQLVQSGAEVKKPGASVKMSCKASGFTFTSYNVHWVRQAPGQGLEWIAAISPGNGDLSYAQKFQGRATLTVDTSTSTAYMELSSLRSEDTAVYYCARGRTGMGAVDYWGQGTLVTVSS
VL: DVQMTQSPSSLSASVGDRVTITCRASQDVYSYLNWYQQKPGKAVKLLIYYTSRLQSGVPSRFSGSGSGTDYTLTISSLQPEDFATYYCQQYNIFPWTFGQGTKLEIK
modifications: v29450, v29454, v29458 H3; v29453, v29454, v29455, v29456 L2
Take B6: the “Fab Tm” value was determined as 79.7 °C.

B7: v29458: "Representative humanized antibody variants ... of the mouse antibody" that specifically binds hNaPi2b (antibody, V domains shown)
VH: QVQLVQSGAEVKKPGASVKMSCKASGFTFTSYNVHWVRQAPGQGLEWIAAISPGNGDLSYAQKFQGRATLTVDTSTSTAYMELSSLRSEDTAVYYCARGRTGMGAVDYWGQGTLVTVSS
VL: DIQMTQSPSSLSASVGDRVTITCRASQDVYSYLNWYQQKPGKAPKLLIYYTSRLQSGVPSRFSGSGSGTDFTLTISSLQPEDFATYYCQQYNIFPWTFGQGTKLEIK
modifications: v29450, v29454, v29458 H3; v29457, v29458, v29459, v29460 L1
For B7, the “Fab Tm” value is 81.6 °C.

B8: v29449: "Representative humanized antibody variants ... of the mouse antibody" that specifically binds hNaPi2b (antibody, V domains shown)
VH: QVQLVQSGAEVKKPGASVKMSCKASGFTFTSYNVHWVRQAPGQGLEWIAAISPGNGDLSYAQKFQGRATLTVDRSTSTAYMELSSLRSEDTAVYYCARGRTGMGAVDYWGQGTLVTVSS
VL: DVQMTQSPSSLSASVGDRVTITCRASQDVYSYLNWYQQKPGKAVKLLIYYTSRLQSGVPSRFSGSGSGTDYTLTISSLQPEDIATYYCQQYNIFPWTFGQGTKLEIK
modifications: v29449, v29453, v29457 H4; v29449 L3
With B8, the “Fab Tm” value amounted to 80.0 °C.
